Target: T1, Flag-tagged TRIM24 N-terminal domain (amino acids 1-473) (mouse, UniProt Q64127 1-473)
T1 construct: TRIM24, mouse, N-terminal domain, amino acids 1-473; the recombinant constructs are numbered to residue 1051; also called amino-terminal region of the Trim24 protein; not shown: Flag, N-terminal, kept
T1 sequence (looked up): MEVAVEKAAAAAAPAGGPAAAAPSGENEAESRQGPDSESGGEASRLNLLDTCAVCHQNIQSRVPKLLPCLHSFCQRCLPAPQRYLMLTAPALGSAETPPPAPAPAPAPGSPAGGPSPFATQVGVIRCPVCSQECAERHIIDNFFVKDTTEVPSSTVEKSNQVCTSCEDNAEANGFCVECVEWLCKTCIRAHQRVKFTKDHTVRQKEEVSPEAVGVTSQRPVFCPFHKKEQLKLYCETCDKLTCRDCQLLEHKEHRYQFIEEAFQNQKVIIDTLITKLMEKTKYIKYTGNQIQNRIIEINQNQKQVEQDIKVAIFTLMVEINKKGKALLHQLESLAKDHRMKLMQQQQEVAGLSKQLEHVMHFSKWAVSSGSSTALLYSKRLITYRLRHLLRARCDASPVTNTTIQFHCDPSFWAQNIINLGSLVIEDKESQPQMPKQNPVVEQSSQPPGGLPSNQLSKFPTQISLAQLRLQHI
Assay: pull-down; Flag-tagged TRIM24 domains (0.25 nmol) mixed with Strep-tagged p53 in equimolar ratios, anti-Flag or Strep-Tactin beads, 2 h at 4 °C, 50 mM HEPES pH 8.0, 150 mM NaCl; stained gel
Details: both partners purified

B1: Strep-tagged mouse full-length p53 (natural protein, UniProt P02340 1-390, looked up)
chain: MTAMEESQSDISLELPLSQETFSGLWKLLPPEDILPSPHCMDDLLLPQDVEEFFEGPSEALRVSGAPAAQDPVTETPGPVAPAPATPWPLSSFVPSQKTYQGNYGFHLGFLQSGTAKSVMCTYSPPLNKLFCQLAKTCPVQLWVSATPPAGSRVRAMAIYKKSQHMTEVVRRCPHHERCSDGDGLAPPQHLIRVEGNLYPEYLEDRQTFRHSVVVPYEPPEAGSEYTTIHYKYMCNSSCMGGMNRRPILTIITLEDSSGNLLGRDSFEVRVCACPGRDRRTEEENFRKKEVLCPELPPGSAKRALPTCTSASPPQKKKPLDGEYFTLKIRGRKRFEMFRELNEALELKDAHATEESGDSRAHSSYLKTKKGQSTSRHKKTMVKKVGPDSD
notes: p53, mouse, full length; also called purified p53; Strep-tagged p53 full-length protein; source: Sf9 (Bac-to-Bac), purified (Strep-Tactin, heparin ion exchange, Superose 6 SEC); not shown: Strep-tag, N-terminal, kept
Does B1 bind?
Result: binds
